The source of these data is US8541376B2, “Composition comprising and method of using angiopoietin-like protein 3 ANGPTL3” (Genentech, Inc., priority 2001, dated 2013).

Data set [1] relates to HMVEC. Nature of the data set: endothelial cell adhesion assay on Angptl3-coated plates. The format is cell-based, human. On the procedure:
(§1) In order to identify potential integrins binding to Angptl3, recombinant Angptl3 proteins were coated onto 96-well flat-bottomed microtiter plates (MaxiSorp, Nunc, Denmark) overnight at 4° C. and blocked with 100 μg/ml BSA in PBS for 1 hour at 37° C. Various 293 cell lines stably transfected with different integrin heterodimers, including IIbIIIa (αIIBβ3), αvβ3, αvβ1 and αvβ5, were tested for their ability to bind Angptl3 coated plates. Cells were harvested and diluted to 10^5 cells/ml in serum-free CS-C medium containing 1% BSA, 1 mM CaCl2 and 1 mM MgCl2. Cells were preincubated with or without blocking antibodies or peptides for 15 minutes at 37° C. and then stimulated with 200 nM PMA. Cell suspensions (10^4 cells/well) were added to the coated wells and the plates were incubated at 37° C. for selected times. Non-adherent cells were removed by PBS washes and cell attachment was measured using the PNAG method of Lanndegren (Landegren, U., J. Immunol. Methods, 67:379-388 (1984)). Results are expressed at mean OD405 values of triplicate wells.
To determine whether the αvβ3 integrin was sufficient to mediate Angptl3 cell adhesion, blocking antibodies or inhibitory peptides were tested for their ability to inhibit the adhesion in the cell adhesion assay. Function blocking antibodies were added to the endothelial cells prior to incubation with the Angptl3-coated wells. […]

In data set [2] the test system is Human microvascular endothelial cells (HMVECs). The experiment in a line: FACS binding of gD-tagged ligands in conditioned media to endothelial cells. The conditions noted are these: for binding to HMVEC: conditioned media from transfected 293 cells, gD-tagged ligands, FACS. On the procedure: Because of the structural similarities between Angptl3 and angiopoietins, Angptl3 was tested for the ability to bind, in culture, to primary endothelial cells expressing the Tie2 receptor. Human microvascular endothelial cells (HMVECs), purchased from Cell System (Kirkland, Wash.), maintained in CS-C complete medium containing 10% fetal bovine serum and mitogens according to the recommendations by the supplier, were incubated with conditioned media from transiently transfected 293 cells expressing epitope (gD)-tagged versions of Tie2 ligands angiopoietin 1 and 2 (Ang1 and Ang2), Angptl3, and angiopoietin related protein 1 (ARP1), respectively. ARP1 is a structurally related molecule, consisting of a coiled-coil and a fibrinogen-like domain but unable to bind Tie2, and was used as a negative control.

Data set [3] deals with T1, Tie2 receptor (Homo sapiens, UniProt Q02763).
T1 construct: in conjunction with full length receptor constructs for Tie1 and Tie2, respectively; expressed in transfected cells; host or cells: 293 cells (transient transfection)
T1 sequence (Q02763 23-1124): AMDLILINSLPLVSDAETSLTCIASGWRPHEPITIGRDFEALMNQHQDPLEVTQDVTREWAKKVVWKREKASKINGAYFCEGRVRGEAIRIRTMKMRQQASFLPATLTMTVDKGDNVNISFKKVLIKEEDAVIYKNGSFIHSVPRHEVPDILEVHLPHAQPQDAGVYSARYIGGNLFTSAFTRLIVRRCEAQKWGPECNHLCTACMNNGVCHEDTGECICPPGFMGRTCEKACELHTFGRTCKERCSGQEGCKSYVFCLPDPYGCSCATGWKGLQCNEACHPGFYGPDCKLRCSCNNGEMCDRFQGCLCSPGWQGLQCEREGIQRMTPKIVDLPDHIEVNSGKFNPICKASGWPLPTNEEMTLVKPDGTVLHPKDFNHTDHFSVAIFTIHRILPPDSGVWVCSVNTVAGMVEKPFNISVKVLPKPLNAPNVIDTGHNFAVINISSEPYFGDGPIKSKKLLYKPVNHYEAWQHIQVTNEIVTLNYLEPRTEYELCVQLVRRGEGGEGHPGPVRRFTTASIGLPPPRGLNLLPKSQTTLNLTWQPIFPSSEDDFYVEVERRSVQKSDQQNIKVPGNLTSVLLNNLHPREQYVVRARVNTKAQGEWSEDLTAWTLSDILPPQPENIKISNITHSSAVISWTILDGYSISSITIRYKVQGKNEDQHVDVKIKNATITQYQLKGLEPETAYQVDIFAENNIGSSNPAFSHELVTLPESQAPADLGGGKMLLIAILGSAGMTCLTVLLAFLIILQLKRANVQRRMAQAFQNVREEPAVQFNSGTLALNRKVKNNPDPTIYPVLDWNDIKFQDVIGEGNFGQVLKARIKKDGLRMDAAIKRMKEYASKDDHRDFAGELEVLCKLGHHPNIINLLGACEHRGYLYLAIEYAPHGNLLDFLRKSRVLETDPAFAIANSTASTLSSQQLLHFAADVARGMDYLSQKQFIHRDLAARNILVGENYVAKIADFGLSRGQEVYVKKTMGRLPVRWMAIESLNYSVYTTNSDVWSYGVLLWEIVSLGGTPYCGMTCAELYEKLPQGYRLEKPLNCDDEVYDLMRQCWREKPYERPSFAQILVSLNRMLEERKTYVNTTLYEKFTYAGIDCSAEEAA
The experiment in a line: co-immunoprecipitation in cotransfected 293 cells. Conditions: immunoprecipitation with anti-Tie2, anti-gD blot. The format is binding. As for the experimental part:
(§2) To test whether Tie2, the receptor for angiopoetins 1, 2 and 3 (Ang1, Ang2, and Ang3), or Tie1, an orphan receptor with high sequence homology to Tie2, bind to Angptl3, immunoprecipitation experiments were conducted using 293 cells transiently with expression vectors for epitope (gD)-tagged versions of Ang1 and Ang2, Angptl3 and ARP1 in conjunction with full length receptor constructs for Tie1 and Tie2, respectively. Whole cell extracts were prepared by lysis in RIPA buffer (1×PBS; 1% NP40; 0.5% sodium deoxycholate; 0.1% SDS; PMSF, 100 μg/ml; Aprotinin, 30 μl/ml; sodium orthovanadate, 1 μM) containing freshly added protease inhibitors. Extract was incubated with antibodies specific for Tie1 or Tie2 (Santa Cruz Biotechnology, San Diego, Calif.) and the resulting immunoprecipitate was analyzed by SDS-PAGE and immunoblotting. Specifically, proteins resolved by SDS-PAGE and blotted to PVDF membrane were incubated with antibodies against the gD tag or the Tie receptors, respectively.

Data set [4] concerns the target T2, Tie1 receptor (Homo sapiens, UniProt P35590).
T2 construct: in conjunction with full length receptor constructs for Tie1 and Tie2, respectively; expressed in transfected cells; host or cells: 293 cells (transient transfection)
Nature of the data set: co-immunoprecipitation in cotransfected 293 cells. Type of data set: binding. Conditions: immunoprecipitation with anti-Tie1, anti-gD blot. As for the experimental part: as §2

Data set [5] addresses T3, αvβ3 integrin (Homo sapiens, UniProt P05106+P06756).
T3 construct: expressed in transfected cells
Nature of the data set: adhesion of integrin-transfected 293 cell lines to Angptl3-coated plates. The conditions noted are these: plates coated with 20 μg/ml hAngptl3, 4 hours; compared to cell lines expressing αIIbβ3, αvβ1, αvβ5. The format is cell-based. On the procedure:
as §1

Data set [6] deals with rat cornea. The experiment in a line: rat cornea in vivo angiogenesis assay. Conditions: for angiogenic response compared to levels obtained for VEGF: Angptl3 500 ng vs VEGF 100 ng. As for the experimental part: In order to test whether Angptl3 was capable to induce an in vivo angiogenic response in the rat cornea, […] pellets containing murine and human Angptl3 (500 ng) as well as human VEGF (100 ng) were implanted separately or in combination as described previously (Xin et al., J. Biol. Chem., 274:[…] (1999)). Hydron pellets containing excipient (control, murine or human Angptl3 (500 ng), VEGF (100 ng), or the combination of murine or human Angptl3 (500 ng) and VEGF (100 ng) were implanted into the corneas of 250 to 300 g male Sprague-Dawley rates. All hydron pellets contained 100 ng of sucralfate. […] Corneal whole mounts were made of the enucleated eyes and analyzed for neovascular areas using a computer-assisted image analysis (Image Pro-Plus 2.0, Silver Spring, Md.). In contrast to previous reports focusing on the effects of angiopoietin 1 and 2 when tested in the corneal angiogenesis assay (Asahara et al., Circ. […] These findings might reflect the interdependent signal transduction pathways engaged by both ligands (Byzova et al., Mol. Cell. 6:852-60 (2000)).

Data set [7] concerns freshly isolated murine hepatocytes. Nature of the data set: cell adhesion on protein-coated plates, hepatocytes. The format is cell-based, mouse. The conditions noted are these: dishes coated with recombinant mAngptl3 (FIG. 13 legend), 200 nM PMA. On the procedure:
96-well flat-bottomed plates (MaxiSorp, Nunc, Denmark) were coated overnight at 4° C. with the indicated concentrations of proteins and blocked with 3% BSA in PBS for 1 hour at 37° C. Primary human dermal endothelial cells (HMVECs) and freshly isolated murine hepatocytes that were prepared from the livers of adult C57/B16 mice using the method described in LeCouter et al (LeCouter et al., 2001) were harvested and diluted to 10^5 cells/ml in serum-free CS-C medium containing 1% BSA, 1 mM CaCl2 and 1 mM MgCl2 in the presence of 200 nM PMA. […] Cell suspensions (10^4 cells/well) were added to the coated wells and the plates were incubated at 37° C. for selected times. Non-adherent cells were removed by PBS washes and cell attachment was measured using the PNAG method of Landegren (Landegren, 1984). Results were expressed at mean OD405 values of triplicate wells.

Data set [8] deals with LFA1 (Homo sapiens, UniProt P05107+P20701). The conditions noted are these: ELISA in vitro (Camenisch et al., 2002); cited from earlier work. (In general: In an ELISA, binding on a coated surface is turned into a signal by an enzyme label.)
Chain of LFA1 (P20701 26-1170): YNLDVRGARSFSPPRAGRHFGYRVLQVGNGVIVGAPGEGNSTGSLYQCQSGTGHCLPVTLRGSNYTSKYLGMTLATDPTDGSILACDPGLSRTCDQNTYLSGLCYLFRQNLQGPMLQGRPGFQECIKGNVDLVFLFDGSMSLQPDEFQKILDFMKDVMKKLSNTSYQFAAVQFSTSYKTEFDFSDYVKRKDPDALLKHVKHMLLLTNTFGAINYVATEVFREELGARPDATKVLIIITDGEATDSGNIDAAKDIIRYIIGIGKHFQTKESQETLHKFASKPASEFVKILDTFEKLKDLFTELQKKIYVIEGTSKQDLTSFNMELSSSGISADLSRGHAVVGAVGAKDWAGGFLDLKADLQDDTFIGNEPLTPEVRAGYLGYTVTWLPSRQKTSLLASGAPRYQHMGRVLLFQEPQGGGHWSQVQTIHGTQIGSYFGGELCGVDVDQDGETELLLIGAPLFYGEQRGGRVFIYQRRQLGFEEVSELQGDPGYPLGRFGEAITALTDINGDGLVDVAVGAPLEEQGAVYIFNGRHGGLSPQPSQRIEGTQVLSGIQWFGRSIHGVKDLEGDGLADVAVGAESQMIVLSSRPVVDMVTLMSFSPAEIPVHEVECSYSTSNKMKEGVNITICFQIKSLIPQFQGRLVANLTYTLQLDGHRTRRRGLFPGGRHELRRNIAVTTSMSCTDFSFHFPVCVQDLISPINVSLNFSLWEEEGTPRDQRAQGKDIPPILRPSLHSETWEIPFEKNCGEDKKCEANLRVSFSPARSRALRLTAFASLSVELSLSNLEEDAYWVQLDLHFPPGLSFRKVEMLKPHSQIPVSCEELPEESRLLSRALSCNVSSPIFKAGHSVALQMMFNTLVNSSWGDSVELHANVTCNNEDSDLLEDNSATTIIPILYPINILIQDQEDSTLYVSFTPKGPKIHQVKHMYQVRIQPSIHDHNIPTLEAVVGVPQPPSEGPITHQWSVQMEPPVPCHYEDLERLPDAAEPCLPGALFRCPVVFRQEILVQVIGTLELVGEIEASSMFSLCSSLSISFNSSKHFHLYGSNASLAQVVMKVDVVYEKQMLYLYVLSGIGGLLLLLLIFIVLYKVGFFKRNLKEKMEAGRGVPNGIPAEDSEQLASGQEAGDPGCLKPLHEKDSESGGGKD
Chain of LFA1 (P05107 23-769): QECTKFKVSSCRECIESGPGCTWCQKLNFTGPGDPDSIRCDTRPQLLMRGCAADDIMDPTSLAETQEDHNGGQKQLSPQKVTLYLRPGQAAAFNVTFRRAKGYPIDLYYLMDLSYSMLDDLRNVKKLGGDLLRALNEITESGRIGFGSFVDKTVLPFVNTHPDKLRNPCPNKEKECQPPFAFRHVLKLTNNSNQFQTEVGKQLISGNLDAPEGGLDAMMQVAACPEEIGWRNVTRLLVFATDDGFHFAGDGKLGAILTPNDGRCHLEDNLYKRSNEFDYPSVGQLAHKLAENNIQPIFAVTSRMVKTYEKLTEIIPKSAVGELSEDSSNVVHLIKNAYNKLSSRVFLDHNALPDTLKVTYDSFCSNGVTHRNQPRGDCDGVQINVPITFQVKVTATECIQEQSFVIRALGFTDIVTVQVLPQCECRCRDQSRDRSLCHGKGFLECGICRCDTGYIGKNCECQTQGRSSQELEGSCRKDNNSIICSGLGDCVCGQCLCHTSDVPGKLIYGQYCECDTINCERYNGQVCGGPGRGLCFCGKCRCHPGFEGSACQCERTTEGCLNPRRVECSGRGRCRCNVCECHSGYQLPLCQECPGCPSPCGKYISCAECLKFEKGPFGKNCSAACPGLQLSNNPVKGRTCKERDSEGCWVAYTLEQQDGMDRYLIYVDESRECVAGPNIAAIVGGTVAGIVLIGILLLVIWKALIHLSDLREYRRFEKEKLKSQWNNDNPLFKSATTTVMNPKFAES
The target of data set [9] is Mac-1 (Homo sapiens, UniProt P05107+P11215). The conditions noted are these: ELISA in vitro (Camenisch et al., 2002); cited from earlier work.
Chain of Mac-1 (P05107 23-769, other chains not shown): as the sequence (P05107 23-769) above

T2 sequence (P35590 22-1138): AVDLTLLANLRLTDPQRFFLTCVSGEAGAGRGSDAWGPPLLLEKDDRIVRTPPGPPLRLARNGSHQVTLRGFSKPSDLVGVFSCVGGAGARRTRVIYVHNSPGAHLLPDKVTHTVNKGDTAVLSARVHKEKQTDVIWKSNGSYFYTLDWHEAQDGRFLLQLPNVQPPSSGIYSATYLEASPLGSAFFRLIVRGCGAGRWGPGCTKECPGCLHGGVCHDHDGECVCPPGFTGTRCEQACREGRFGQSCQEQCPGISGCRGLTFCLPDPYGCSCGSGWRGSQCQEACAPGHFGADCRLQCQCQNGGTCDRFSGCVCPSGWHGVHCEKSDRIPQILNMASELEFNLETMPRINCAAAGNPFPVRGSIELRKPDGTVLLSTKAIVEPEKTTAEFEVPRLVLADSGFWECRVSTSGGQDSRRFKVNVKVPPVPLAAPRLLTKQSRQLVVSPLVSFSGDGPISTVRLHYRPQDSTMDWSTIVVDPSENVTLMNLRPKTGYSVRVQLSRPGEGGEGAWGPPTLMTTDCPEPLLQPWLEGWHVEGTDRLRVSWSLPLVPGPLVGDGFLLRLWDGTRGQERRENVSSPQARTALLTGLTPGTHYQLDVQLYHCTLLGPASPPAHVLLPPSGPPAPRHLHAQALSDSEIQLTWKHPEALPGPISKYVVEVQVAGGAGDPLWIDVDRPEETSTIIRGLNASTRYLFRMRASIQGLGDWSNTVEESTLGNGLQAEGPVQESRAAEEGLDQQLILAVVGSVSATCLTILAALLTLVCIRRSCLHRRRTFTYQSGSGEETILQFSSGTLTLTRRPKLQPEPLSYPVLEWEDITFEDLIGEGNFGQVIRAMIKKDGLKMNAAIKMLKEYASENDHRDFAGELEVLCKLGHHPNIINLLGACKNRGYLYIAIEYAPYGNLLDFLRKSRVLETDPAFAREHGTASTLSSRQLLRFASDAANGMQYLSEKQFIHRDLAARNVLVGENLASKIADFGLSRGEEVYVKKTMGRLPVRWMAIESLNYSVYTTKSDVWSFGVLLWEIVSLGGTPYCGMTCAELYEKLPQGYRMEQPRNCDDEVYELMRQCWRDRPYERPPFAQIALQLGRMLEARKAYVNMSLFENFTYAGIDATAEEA

With `O=C(O)CN(CCN(CC(=O)O)CC(=O)O)CC(=O)O` [EDTA, reference compound], the “effect of EDTA on endothelial cell adhesion to Angptl3” value in [1] (EDTA 10 mM) is recorded as “completely abolished”.
For the molecule “Ang2: epitope (gD)-tagged Tie2 ligand angiopoietin 2 [reference compound]”, in [2], the “binding to HMVEC” value is “strongly bound”. Also, in data set [3], the “binding to Tie2” value is given as “Tie2 binding”.

B1: Ang1: epitope (gD)-tagged Tie2 ligand angiopoietin 1 (protein, listed as Homo sapiens)
chain: RDCADVYQAGFNKSGIYTIYINNMPEPKKVFCNMDVNGGGWTVIQHREDGSLDFQRGWKEYKMGFGNPSGEYWLGNEFIFAITSQRQYMLRIELMDWEGNRAYSQYDRFHIGNEKQNYRLYLKGHTGTAGKQSSLILHGADFSTKDADNDNCMCKCALMLTGGWWFDACGPSNLNGMFYTAGQNHGKLNGIKWHYFKGPSYSLRSTTMMIRPLDF
modifications: gD epitope tag
In the case of B1, in data set [3], the “binding to Tie2” value is given as “Tie2 binding”.

B2: Angptl3: angiopoietin-like protein 3, native human sequence SEQ ID NO: 2; recombinant gD-tagged secreted glycoprotein (protein, listed as Homo sapiens)
chain: MFTIKLLLFIVPLVISSRIDQDNSSFDSLSPEPKSRFAMLDDVKILANGLLQLGHGLKDFVHKTKGQINDIFQKLNIFDQSFYDLSLQTSEIKEEEKELRRTTYKLQVKNEEVKNMSLELNSKLESLLEEKILLQQKVKYLEEQLTNLIQNQPETPEHPEVTSLKTFVEKQDNSIKDLLQTVEDQYKQLNQQHSQIKEIENQLRRTSIQEPTEISLSSKPRAPRTTPFLQLNEIRNVKHDGIPAECTTIYNRGEHTSGMYAIRPSNSQVFHVYCDVISGSPWTLIQHRIDGSQNFNETWENYKYGFGRLDGEFWLGLEKIYSIVKQSNYVLRIELEDWKDNKHYIEYSFYLGNHETNYTLHLVAITGNVPNAIPENKDLVFSTWDHKAKGHFNCPEGYSGGWWWHDECGENNLNGKYNKPRAKSKPERRRGLSWKSQNGRLYSIKSTKMLIHPTDSESFE
modifications: gD tag
notes: recombinant gD-tagged secreted glycoprotein
As for B2, the “binding to HMVEC after exposure of cells to hypoxia or VEGF” value in data set [2] (cells exposed to hypoxia or VEGF, data not shown) is “significantly increased”. Besides, the “binding to HMVEC” value in data set [2] was “strongly bound”. Also, the “binding to Tie1” value in data set [4] was “did not bind”. Moreover, the “binding to Tie2” value in [3] was “did not bind”. For the same molecule, in [1] (increasing coating amounts of hAngptl3, within 4 hours), the “induction of endothelial cell adhesion” value is on record as “robust, dose-dependent adhesion”. Besides, the “adherence of 293 cells expressing αvβ3 to Angptl3” value in data set [5] is recorded as “marked increased”. Besides, the “in vivo angiogenic response in rat cornea” value in data set [6] (500 ng in hydron pellet, alone, 5 days after pellet implantation) is “strong angiogenic response”. The “angiogenic response compared to levels obtained for VEGF” value in [6] is listed as “comparable”. Also, the hepatocyte adhesion result in data set [7] is on record as “Coating-concentration dependent”. The “binding to LFA1” value in data set [8] was “did not bind”. The “binding to Mac-1” value in [9] is listed as “did not bind”.

B3: murine Angptl3: recombinant mouse Angptl3 overexpressed in CHO cells (protein, UniProt Q9R182 17-455, looked up)
Angiopoietin-related protein 3: SRVDPDLSSFDSAPSEPKSRFAMLDDVKILANGLLQLGHGLKDFVHKTKGQINDIFQKLNIFDQSFYDLSLRTNEIKEEEKELRRTTSTLQVKNEEVKNMSVELNSKLESLLEEKTALQHKVRALEEQLTNLILSPAGAQEHPEVTSLKSFVEQQDNSIRELLQSVEEQYKQLSQQHMQIKEIEKQLRKTGIQEPSENSLSSKSRAPRTTPPLQLNETENTEQDDLPADCSAVYNRGEHTSGVYTIKPRNSQGFNVYCDTQSGSPWTLIQHRKDGSQDFNETWENYEKGFGRLDGEFWLGLEKIYAIVQQSNYILRLELQDWKDSKHYVEYSFHLGSHETNYTLHVAEIAGNIPGALPEHTDLMFSTWNHRAKGQLYCPESYSGGWWWNDICGENNLNGKYNKPRTKSRPERRRGIYWRPQSRKLYAIKSSKMMLQPTT
As to B3, the “potency in inducing angiogenesis compared to the recombinant human protein” value in [6] (500 ng each) is listed as “slightly more potent”. Also, the “angiogenic response compared to levels obtained for VEGF” value in data set [6] was “comparable”.

B4: ARP1: angiopoietin related protein 1, unable to bind Tie2, negative control (protein, UniProt O95841 24-491, looked up)
Angiopoietin-related protein 1: GQFKIKKINQRRYPRATDGKEEAKKCAYTFLVPEQRITGPICVNTKGQDASTIKDMITRMDLENLKDVLSRQKREIDVLQLVVDVDGNIVNEVKLLRKESRNMNSRVTQLYMQLLHEIIRKRDNSLELSQLENKILNVTTEMLKMATRYRELEVKYASLTDLVNNQSVMITLLEEQCLRIFSRQDTHVSPPLVQVVPQHIPNSQQYTPGLLGGNEIQRDPGYPRDLMPPPDLATSPTKSPFKIPPVTFINEGPFKDCQQAKEAGHSVSGIYMIKPENSNGPMQLWCENSLDPGGWTVIQKRTDGSVNFFRNWENYKKGFGNIDGEYWLGLENIYMLSNQDNYKLLIELEDWSDKKVYAEYSSFRLEPESEFYRLRLGTYQGNAGDSMMWHNGKQFTTLDRDKDMYAGNCAHFHKGGWWYNACAHSNLNGVWYRGGHYRSKHQDGIFWAEYRGGSYSLRAVQMMIKPID
As for B4, the “binding to HMVEC” value in [2] was “no binding was observed”.
